Legend:
[1] = target: 22-mer tyrosine-sulfated biotinylated N-terminal CCR5 peptide; assay: SPR; qualitative; ~5000 RU of biotinylated CCR5 peptide on an SA chip; 100 nM gp120 proteins injected at 10 µl/min, alone or pre-incubated with 2-fold molar excess of sCD4; 25°C; HBS-EP buffer; compared at time = 300 s
[2] = target: soluble CD4 (sCD4) (UniProt P01730); assay: SPR; BIAcore 3000; ~200 RU of sCD4 or mAb immobilised directly on a CM5 chip via amine coupling; varying concentrations of gp120 injected at 80 µl/min; 25°C; HBS-EP buffer; 1:1 Langmuir fit
[3] = target: wild-type SF162 gp140 (cleavage-defective) (HIV-1 SF162); assay: not stated; oligomeric state of the purified glycoproteins; method not given

Substance: gp120+sCD4 (sCD4-liganded, wild-type gp120) (from UniProt P01730) (complex)
- fold better binding than gp120 [1]: > 10 fold

Substance: wild-type SF162 gp120 (natural protein)
- Kd [2]: 24.5 nM

Substance: wild-type SF162 gp140 (cleavage-defective) (natural protein)
- stoichiometry N [3]: 3

Source: paper PMC3797752
